{
  "source": "patent US20230212305A1",
  "about": "“ANTI-ABCG2 ANTIBODIES AND USES THEREOF” (Kenjockety Biotechnology, Inc., priority 2020, published 2023)",
  "key": {"[1]": {"target": "T1, ABCG2 (Homo sapiens, UniProt Q9UNQ0)", "T1 construct": "expressed in transfected cells", "T1 sequence (Q9UNQ0 1-655)": "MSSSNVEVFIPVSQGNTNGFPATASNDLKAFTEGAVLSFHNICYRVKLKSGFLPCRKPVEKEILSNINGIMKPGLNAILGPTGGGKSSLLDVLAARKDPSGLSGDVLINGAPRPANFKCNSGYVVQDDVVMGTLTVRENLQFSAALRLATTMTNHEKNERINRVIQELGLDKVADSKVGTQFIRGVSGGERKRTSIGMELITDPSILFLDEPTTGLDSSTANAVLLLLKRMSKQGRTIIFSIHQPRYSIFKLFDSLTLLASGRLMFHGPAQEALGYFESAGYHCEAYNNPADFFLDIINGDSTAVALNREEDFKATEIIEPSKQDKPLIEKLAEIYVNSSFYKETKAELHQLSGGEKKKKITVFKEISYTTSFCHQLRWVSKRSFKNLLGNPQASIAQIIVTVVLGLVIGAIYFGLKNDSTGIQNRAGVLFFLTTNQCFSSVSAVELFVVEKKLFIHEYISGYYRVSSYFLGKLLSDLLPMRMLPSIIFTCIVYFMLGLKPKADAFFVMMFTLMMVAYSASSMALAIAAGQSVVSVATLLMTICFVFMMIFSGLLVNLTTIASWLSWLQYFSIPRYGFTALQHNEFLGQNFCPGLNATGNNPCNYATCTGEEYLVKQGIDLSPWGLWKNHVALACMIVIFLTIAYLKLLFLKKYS", "assay": "Flow cytometry binding to 293T cells overexpressing human ABCG2 (293T_ABCG2_OX)", "parameters": "key to Binding by FACS: binding=“+”; non-significant binding=“−”", "protocol": "(§1) Cell Binding Assays. Antibody binding to cells was evaluated by flow cytometry. 293T cells stably transfected to express human or cynomolgus ABCG2 (293T_ABCG2_OX) were washed once in flow cytometry buffer (PBS+2% FBS+0.02% sodium azide), resuspended at 2×10^6 cells/mL in flow cytometry buffer, and dispensed into 96-well microtiter plates at 0.1 mL/well. Recombinant antibodies were added to cells at 5 ug/mL for initial binding confirmation, or serially diluted from 100 ug/mL in flow cytometry buffer. After incubating cells on ice for 30 min, cells were washed twice with flow cytometry buffer. Bound antibody was detected with PE-labeled F(ab′)2 fragment goat anti-human IgG (Jackson ImmunoResearch) and evaluated on an Attune NxT flow cytometer. EC50 is calculated to be the concentration of antibody that gives half maximal response."}, "[2]": {"system": "cynomolgus ABCG2", "sequence (as listed by the source)": "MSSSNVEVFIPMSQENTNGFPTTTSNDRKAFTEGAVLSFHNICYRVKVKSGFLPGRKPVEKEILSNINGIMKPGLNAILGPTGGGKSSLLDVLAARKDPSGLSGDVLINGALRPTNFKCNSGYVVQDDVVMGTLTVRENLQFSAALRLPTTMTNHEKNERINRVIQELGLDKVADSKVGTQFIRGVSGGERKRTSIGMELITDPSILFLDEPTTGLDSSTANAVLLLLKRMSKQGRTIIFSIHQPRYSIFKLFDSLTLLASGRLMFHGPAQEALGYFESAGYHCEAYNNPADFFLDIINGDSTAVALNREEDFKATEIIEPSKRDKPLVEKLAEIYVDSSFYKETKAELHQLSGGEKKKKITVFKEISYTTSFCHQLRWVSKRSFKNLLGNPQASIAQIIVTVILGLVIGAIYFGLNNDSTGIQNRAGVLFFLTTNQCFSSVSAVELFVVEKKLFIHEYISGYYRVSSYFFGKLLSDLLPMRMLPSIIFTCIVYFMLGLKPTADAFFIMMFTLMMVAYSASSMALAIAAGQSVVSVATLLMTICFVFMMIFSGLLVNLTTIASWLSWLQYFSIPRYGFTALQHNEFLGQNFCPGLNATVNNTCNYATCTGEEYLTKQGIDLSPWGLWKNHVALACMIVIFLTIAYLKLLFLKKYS", "assay": "Flow cytometry binding to 293T cells overexpressing cynomolgus ABCG2", "parameters": "key to Cynomolgus ABCG2 binding: binding=“+”; non-significant binding=“−”", "protocol": "as §1"}, "[3]": {"target": "T1, ABCG2", "type": "cell-based", "protocol": "293T_ABCG2_OX cells were washed several times and aliquoted into 96-well plates as 50 μl aliquots/well at a cell density of 2×10e6 cells per ml in phenol red-free DMEM. Cells were mixed with 50 μl antibodies or the small molecule inhibitors of ABCG2:-fumitremorgin C (FTC), or its tetracyclic analogue K0143, with a final concentration of 1 μM. Cells were then incubated in the presence of 2.5 μM Mitoxantrone 1 h at 37° C. The cells were subsequently washed twice and finally resuspended in […] PBS. Mitoxantrone fluorescence was measured using excitation at 635 nm and emission at 647 nm. Protocols was measuring efflux blockade are found in Szabo E, et al., PLoS One. 2018 Jan. 17; 13(1):e0190629; Deeken J F, et al., Mol Pharmacol. 2009 November; 76(5):946-56)."}, "[4]": {"system": "293T_ABCG2_OX cells", "type": "cell-based, human", "conditions": "cell killing by topotecan on 293T_ABCG2_OX cells; viability relative to IgG control", "protocol": "Cytotoxicity Assays. The effect of antibodies on topotecan cytotoxicity was evaluated on 293T_ABCG2_OX cells, 293T cells stably transfected to express ABCG2. Cells were plated in 0.05 mL of Assay Media (DMEM+10% FBS) at 5000 cells/well in white, flat bottom 96-well tissue culture plates. Topotecan was prepared at 2× final assay concentration by serial dilution from 200 uM in assay media containing test antibodies or control antibodies at 100 ug/mL (2× final concentration), or Fumitremorgin C, a small molecule ABCG2 inhibitor at 20 uM (2× final concentration). An equivalent volume (0.05 mL) of the topotecan/antibody mixture was added to the 293T_ABCG2_OX cells in 96-well plates. The plates were then incubated at 37° C., in 5% CO2. After 72-96 hr plates were equilibrated to room temperature and cell viability assessed using Promega® CellTiter-Glo® Luminescent Cell Viability Assay according to the manufacturer's recommended protocol. Luminescence was measured on a Molecular Devices® FlexStation® 3 Multi-Mode Microplate Reader and data analyzed using GraphPad Prism 8.0 software. Half maximal inhibitory concentration (1050) is the concentration of drug (topotecan or other chemotherapy cytotoxic agent) where the response (cell growth) is reduced by 50%."}},
  "data": [
    {"substance": "5D3: anti-Human ABCG2 Antibody (Clone 5D3) from R&D Systems [Antibody 5D3, reference compound]", "values": [
      {"measurement": "Binding by FACS", "setting": "[1]; 293T_ABCG2_OX cells", "value": "+"},
      {"measurement": "binding to human ABCG2 expressed on 3T3 and C6 cell lines", "setting": "[1]; FIG. 1B, stably transfected cells", "value": "binds"},
      {"measurement": "Cynomolgus ABCG2 binding", "setting": "[2]", "value": "+"},
      {"measurement": "binding to cynomolgus ABCG2 (cG2) expressed by 3T3 cells", "setting": "[2]; FIG. 1B, 3T3 cells stably transfected with cABCG2", "value": "binds"},
      {"measurement": "Block Efflux", "setting": "[3]", "value": "+"},
      {"measurement": "Killing", "setting": "[4]", "value": "++ (viability ≥10% and <30% of IgG control)"}
    ]}
  ]
}
